Each block holds one binder with its values, some of them ahead of it.
Key:
[1] = target: Hsp90 ( (Arabidopsis H. vulgare or …, UniProt Q7XJ80)); assay: competition GST pull-down; ATPase stimulation
[2] = target: T1, GST-Rar1 (wild type) (Arabidopsis thaliana (Mouse-ear cress), UniProt Q9SE33); assay: GST pull-down; strengthened by Sgt1; ADP enhances the CHORDI-Hsp90 interaction
T1 chain: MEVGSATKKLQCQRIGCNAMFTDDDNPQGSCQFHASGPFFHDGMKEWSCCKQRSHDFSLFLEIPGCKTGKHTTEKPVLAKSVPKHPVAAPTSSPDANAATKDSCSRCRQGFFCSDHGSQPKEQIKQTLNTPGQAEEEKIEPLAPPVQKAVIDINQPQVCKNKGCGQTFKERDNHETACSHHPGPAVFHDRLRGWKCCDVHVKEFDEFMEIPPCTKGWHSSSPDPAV

Hsp90 (, sequence (Q7XJ80 entry or part of it): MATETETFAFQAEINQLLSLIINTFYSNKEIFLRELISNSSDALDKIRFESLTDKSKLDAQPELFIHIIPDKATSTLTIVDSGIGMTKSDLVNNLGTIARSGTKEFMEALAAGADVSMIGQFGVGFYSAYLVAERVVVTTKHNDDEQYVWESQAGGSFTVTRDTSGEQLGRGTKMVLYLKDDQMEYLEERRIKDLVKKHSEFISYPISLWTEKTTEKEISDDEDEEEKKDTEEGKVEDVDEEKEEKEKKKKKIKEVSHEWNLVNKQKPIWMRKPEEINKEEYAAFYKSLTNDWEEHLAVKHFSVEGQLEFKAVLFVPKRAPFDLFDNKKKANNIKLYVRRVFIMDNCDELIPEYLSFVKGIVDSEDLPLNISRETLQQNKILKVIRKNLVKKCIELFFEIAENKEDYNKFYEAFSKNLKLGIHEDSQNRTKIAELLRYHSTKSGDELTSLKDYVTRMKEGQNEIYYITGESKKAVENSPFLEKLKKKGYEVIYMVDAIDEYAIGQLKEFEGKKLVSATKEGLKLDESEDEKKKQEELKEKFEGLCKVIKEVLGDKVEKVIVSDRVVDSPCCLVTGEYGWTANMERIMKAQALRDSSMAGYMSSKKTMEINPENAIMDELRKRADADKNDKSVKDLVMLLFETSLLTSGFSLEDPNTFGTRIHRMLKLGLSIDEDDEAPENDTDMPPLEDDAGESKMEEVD

binding result [1]: binds
B1: Rar1 (wild type, not GST-tagged) (protein)
chain: T1 chain

binding result [2]: binds
B2: Hsp90 (protein)
chain: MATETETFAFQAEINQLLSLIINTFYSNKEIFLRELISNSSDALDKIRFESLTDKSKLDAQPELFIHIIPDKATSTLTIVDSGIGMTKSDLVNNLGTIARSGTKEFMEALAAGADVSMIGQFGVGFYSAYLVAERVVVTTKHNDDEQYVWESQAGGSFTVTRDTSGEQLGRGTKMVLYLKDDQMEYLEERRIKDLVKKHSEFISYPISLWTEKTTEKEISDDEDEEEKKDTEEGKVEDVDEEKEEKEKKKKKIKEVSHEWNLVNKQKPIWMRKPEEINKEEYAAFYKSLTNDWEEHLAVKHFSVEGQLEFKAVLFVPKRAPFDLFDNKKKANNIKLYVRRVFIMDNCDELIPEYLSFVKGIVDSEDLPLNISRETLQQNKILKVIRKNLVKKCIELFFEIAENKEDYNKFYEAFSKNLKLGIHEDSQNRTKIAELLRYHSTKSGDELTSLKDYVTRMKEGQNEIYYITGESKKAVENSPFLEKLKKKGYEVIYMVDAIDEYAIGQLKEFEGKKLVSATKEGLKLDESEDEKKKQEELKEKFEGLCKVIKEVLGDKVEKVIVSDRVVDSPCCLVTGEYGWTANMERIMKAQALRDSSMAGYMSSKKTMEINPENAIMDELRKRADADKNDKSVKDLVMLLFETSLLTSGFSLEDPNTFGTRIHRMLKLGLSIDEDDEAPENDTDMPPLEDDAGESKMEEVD
